Earlier results on five substances are cited in article PMC2663039.

Where “and” joins values, the source holds several entries; their conditions need not be identical. Equal entries are not always repeated.

One series deals with VEGFR2 (Homo sapiens) (UniProt P35968).
The target of the next series is VEGFR1 (Homo sapiens) (UniProt P17948).
In series [1] the target is sFlt-1 (HUVEC-derived) soluble form (Homo sapiens) (UniProt P17948).
The target of series [2] is sFlt-1 (baculovirus-expressed) soluble form (Homo sapiens) (UniProt P17948).
The target in series [3] is sVEGFR1 (sFlt-1, baculovirus-expressed) soluble isoform (Homo sapiens) (UniProt P17948).
For series [4], the target named is sVEGFR1 (sFlt-1, HUVEC-derived) soluble isoform (Homo sapiens) (UniProt P17948).
The target in series [5] is NRP1 (Homo sapiens) (UniProt O14786). Briefly: SPR. In general terms: SPR reads the build-up and loss of mass on a sensor chip optically.
Series [6] has the same target. Briefly: cell-based Scatchard.
For series [7] the target is unchanged. Briefly: SPR (BIAcore).

UniProt P35968, sequence (P35968 20-1356): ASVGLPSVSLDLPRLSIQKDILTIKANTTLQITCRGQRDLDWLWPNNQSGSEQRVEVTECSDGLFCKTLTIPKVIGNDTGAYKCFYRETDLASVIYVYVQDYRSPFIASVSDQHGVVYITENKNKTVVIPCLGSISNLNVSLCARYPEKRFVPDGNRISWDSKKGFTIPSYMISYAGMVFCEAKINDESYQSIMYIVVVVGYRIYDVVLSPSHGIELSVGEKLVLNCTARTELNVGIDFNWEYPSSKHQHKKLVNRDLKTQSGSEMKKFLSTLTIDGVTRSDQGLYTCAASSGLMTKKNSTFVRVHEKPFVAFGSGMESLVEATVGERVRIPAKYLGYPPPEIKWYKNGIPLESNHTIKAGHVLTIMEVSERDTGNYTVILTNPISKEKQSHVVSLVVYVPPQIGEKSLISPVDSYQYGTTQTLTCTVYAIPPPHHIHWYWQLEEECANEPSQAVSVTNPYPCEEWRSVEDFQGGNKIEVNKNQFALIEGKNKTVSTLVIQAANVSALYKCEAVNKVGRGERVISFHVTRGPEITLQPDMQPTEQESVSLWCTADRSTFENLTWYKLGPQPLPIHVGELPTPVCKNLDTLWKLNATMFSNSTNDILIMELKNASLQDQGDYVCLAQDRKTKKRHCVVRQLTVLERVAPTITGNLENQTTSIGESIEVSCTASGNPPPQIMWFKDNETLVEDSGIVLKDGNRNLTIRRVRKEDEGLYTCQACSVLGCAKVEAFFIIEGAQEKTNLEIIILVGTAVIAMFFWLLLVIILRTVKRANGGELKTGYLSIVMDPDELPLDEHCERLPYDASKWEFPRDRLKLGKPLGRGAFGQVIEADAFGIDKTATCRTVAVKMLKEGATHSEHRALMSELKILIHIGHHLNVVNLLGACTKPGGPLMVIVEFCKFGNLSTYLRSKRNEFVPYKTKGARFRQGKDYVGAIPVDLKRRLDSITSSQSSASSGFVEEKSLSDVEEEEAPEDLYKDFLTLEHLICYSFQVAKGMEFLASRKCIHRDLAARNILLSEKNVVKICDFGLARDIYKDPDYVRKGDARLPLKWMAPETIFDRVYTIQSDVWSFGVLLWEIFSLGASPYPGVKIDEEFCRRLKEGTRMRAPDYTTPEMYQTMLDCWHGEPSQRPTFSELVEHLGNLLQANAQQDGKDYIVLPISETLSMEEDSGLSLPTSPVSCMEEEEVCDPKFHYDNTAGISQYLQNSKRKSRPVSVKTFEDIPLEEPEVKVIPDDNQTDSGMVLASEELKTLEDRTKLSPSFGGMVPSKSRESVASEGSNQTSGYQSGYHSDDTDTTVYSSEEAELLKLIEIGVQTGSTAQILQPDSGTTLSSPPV

For orientation: Kd means the free concentration of one partner at which half of the binding sites on the other are occupied at equilibrium, for simple one-to-one binding. On to VEGF (from UniProt P15692), for which the Kd in the series with VEGFR2 (Homo sapiens) is 0.1 nM; with VEGFR1 (Homo sapiens) it was 0.0333 nM; in series [1], 0.01 nM; in series [2], 0.02 nM; in [3] it was 0.02 nM; in series [4], 0.01 nM.
On to Flt-1 ECD (from UniProt P17948), for which, in the series with NRP1 (Homo sapiens) [5], the Kd is 1.8 nM.
As for “VEGF165 VEGF165 isoform (from UniProt P15692)”, the Kd was 0.2 nM and 0.32 nM in the series with NRP1 (Homo sapiens) [6]; 25 nM in the series with NRP1 (Homo sapiens) [7].
On to VEGF165 VEGF165 (from UniProt P15692), for which the Kd in the series with NRP1 (Homo sapiens) [5] was 120 nM.
In the case of VEGF121 VEGF121 (from UniProt P15692), the Kd in the series with NRP1 (Homo sapiens) [5] was 220 nM.
